Measurements from US20240076343A1.

Target: recombinant His-tagged human PD-1 (Acro Biosystems) (human) (UniProt Q15116)
Experiment: SPR Carterra LSA

Chain of recombinant His-tagged human PD-1 (Acro Biosystems) (human) (Q15116 25-167 limits assumed): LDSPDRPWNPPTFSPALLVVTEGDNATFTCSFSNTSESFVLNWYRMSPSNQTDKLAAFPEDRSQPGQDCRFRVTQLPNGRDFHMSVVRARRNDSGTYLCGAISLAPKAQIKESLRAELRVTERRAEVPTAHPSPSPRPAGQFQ

Kd	koff	kon	Substance
10 nM	0.0014 s⁻¹	130000 M⁻¹ s⁻¹	Anti-PD-1 clone MIH4 mIgG1 (antibody)
86 nM	0.0053 s⁻¹	62000 M⁻¹ s⁻¹	Anti-hPD-1 clone J105-mIgG1 (antibody)
19 nM	0.0022 s⁻¹	110000 M⁻¹ s⁻¹	Anti-hPD-1 clone EH12.2H7-mIgG1 (antibody)

Target: recombinant His-tagged cynomolgus PD-1 (Acro Biosystems) (cynomolgus) (UniProt B0LAJ3)
Experiment: SPR Carterra LSA

Chain of recombinant His-tagged cynomolgus PD-1 (Acro Biosystems) (cynomolgus) (B0LAJ3 entry or part of it limits assumed): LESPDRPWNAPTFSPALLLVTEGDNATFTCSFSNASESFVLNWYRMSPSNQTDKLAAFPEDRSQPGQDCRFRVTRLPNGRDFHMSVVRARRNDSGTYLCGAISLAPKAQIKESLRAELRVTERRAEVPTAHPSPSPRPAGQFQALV

Kd	koff	kon	Substance
891 nM	0.12 s⁻¹	130000 M⁻¹ s⁻¹	Anti-PD-1 clone MIH4 mIgG1 (antibody)
1300 nM	0.066 s⁻¹	50000 M⁻¹ s⁻¹	Anti-hPD-1 clone J105-mIgG1 (antibody)
6.4 nM	–	–	OPDIVO ® (nivolumab) (antibody)
85 nM	0.0073 s⁻¹	86000 M⁻¹ s⁻¹	Anti-hPD-1 clone EH12.2H7-mIgG1 (antibody)
0.575 nM	–	–	KEYTRUDA ® (pembrolizumab) (antibody)
